The RNAGym collection of RNA variant scans (doi:10.1073/pnas.2313332121)
Variants at the floor of the assay were thinned out.

B1: TPR 5TU (parent)
chain: GGAUCUUCUCGAUCUAACAAAAAAGACAAAUCUGCCACAAAGCUUGAGAGCAUCUUCGGAUGCAGAGGCGGCAGCCUUCGGUGGCGCGAUAGCGCCAACGUUCUCAACUAUGACACGCAAAACGCGUGCUCCGUUGAAUGGAGUUUAUCAUG

Variants of: B1
Experiment: polymerase ribozyme fitness, log enrichment relative to wild type (log ratio); higher = more active; in vitro selection for triplet polymerase activity
Summary of the method: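 Fitness is a logarithmic measure of how a genotype enriched relative to the wild type, with replicate averages weighted by inverse variance. The logarithm uses base 2, and enrichment came from Illumina sequencing of input and output libraries. Those libraries were PCR-built, transcribed mutants of each subunit of a heterodimeric triplet polymerase ribozyme, passed through one triplicate in vitro selection round that included frozen incubation at −7 °C, gel excision of extended constructs and streptavidin-bead capture. Genotypes were kept only if they had ≥10 input reads and ≥1 read per output.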

Variant	polymerase ribozyme fitness (log ratio)
U55A C57A G59C G80U A91U	≤ -4.2
C95U C116G	0.0419
G81C C85U A97G U109G	-0.959
G25U G58U C69A G71C G94U G100C	≤ -4.2
A41C A49C U56A G67C C76G C87A	≤ -4.2
G50C C75G C85A C132U	≤ -4.2
C54A G81A	-1.07
C14U C99A G136A	-2.47
C36A U55A G92A C96G G126C U144C	≤ -4.2
A52G C85U U104G	-0.901
C27A A60G C75U C87U G100A C116U U148A	≤ -4.2
G34U A60C C108G A150C	-4.17
A39G C69G C93U C103G C108U C116U A137C	≤ -4.2
A16U A41C G42A G65A A66G C87A U90G	≤ -4.2
A137G G143C	-3.85
A24C A39G	-3.42
C32U U56A G74A	0.713
U7C U53A	-2.82
C57G A142C	-0.312
A52U C63U C85U C116G	-0.741
C5G A12G C63U G84C C96U	≤ -4.2

Variant	polymerase ribozyme fitness (log ratio)
A52C A115G	-2.09
U33C C43G G50C G58A G86A C105A A137G	≤ -4.2
A12U G84A G88C A119C G140A	≤ -4.2
C5U U139G	0.221
C36A U55A G124A G141U	≤ -4.2
U44A A47C U56A G84C C87G	≤ -4.2
A66G C114U	-4.17
C14U C35U G59C A60G C85U U104A A120U G128U A147G	≤ -4.2
G81A C87U U146G	-3.41
A28U C32G G133C	≤ -4.2
A41C G46A U82A C116G	-3.58
C32G U56A C57U C76A C93A C118G U135C	≤ -4.2
C10G C43G U55A G83A G92C C125A	≤ -4.2
A52C G70C C85U C125U	≤ -4.2
A19U A91U	≤ -4.2
U144C A147G	-0.508
G80C C85A G94C C132U G141U U148C	≤ -4.2
C87G C93G	-3.76
C51U G92U C93U C95U	-2.56
A19G G141C	-0.542
U45G G83C G117A	-1.29

Variant	polymerase ribozyme fitness (log ratio)
C32U G68A G80C C96G A150U	≤ -4.2
U15G A29U C75G C87G G88U A119G C149A	≤ -4.2
C54U C76U C87U U127A U139C A142U C149G	≤ -4.2
G25A C87G A98U	≤ -4.2
A37G A47C G83U	-4.12
C54U G84A C93G	≤ -4.2
A110G G117A U144A	-4.15
A3C C85A	-2.55
G74C C99U	≤ -4.2
G92C C114U G141U	≤ -4.2
A137G U148A	-3.67
U6C A49C C99A U146C	≤ -4.2
U31C G58C C95G A97G G143A	-2.96
A47U U56A C85A U104A	-2.77
U77A C132U	≤ -4.2
G88A C96U	-3.43
C87A C95U G141C	-4.16
C14U A17U C38G A60U	-2.73
C14A U55A G68A A107U	≤ -4.2
C95U G100U U148G	≤ -4.2
A64G G86U U130C	≤ -4.2

Variant	polymerase ribozyme fitness (log ratio)
A37G A66U	≤ -4.2
G83A C131U U139A G143A	≤ -4.2
A19C G59A G84U A98G A115U	-3.52
A22G	0.56
A19C A91U	-3.83
C10G A12G G84A U109G G141A	≤ -4.2
U53A G65A	-1.33
G25A A29C A40U G68C C93A A97U	≤ -4.2
U82C C93G	-3.99
U33A A73U C85U U127G	-2.45
G48C C51U C54U C57U U90C A138G U144A	≤ -4.2
U78G C87G G92U A97C	≤ -4.2
U53A G70C	≤ -4.2
A23G G34U G141C	≤ -4.2
U9G G65A G81U C95U	≤ -4.2
U33C C105G	-4.2
U4C U56G G83A C87A	≤ -4.2
A24U C35U C96U C105U A147G	-3.09
U144A A150U	-1.5
G58C G59A U102G A121U U127C	-3.85
